Experimental data: US20250011468A1

B1: 224F3 (anti-FIXa reference antibody, Scheiflinger et al.) (antibody, from another filing, human IgG1, V domains shown)
VH: QVQMQQSGAELVKPGASVKLSCKASGYTFTSQDINWVRQRPEQGLEWIGWIFPGDGSTKYNEKLKGKATLTTDKSSSTAFMQLSRLTSEDSAVYFCARSAYYRYDGSYYYAMDYWGQGTSVTVSS
VL: QIVLTQSPAIMSASLGEEITLTCSASSSVSYMLWYQQKSGTSPKLLIYTTSNLASGVPSRFSGTGSGTFYSLTISSVEAEDAADYYCHQWSSYPRTFGGGTKLEIKR
B2: mAb1-1582 (monovalent one-armed version of the anti-FIXa antibody 224F3) (antibody, from another filing, V domains shown)
VH: B1 VH
VL: B1 VL

Molecular target: human plasma-derived FIXa (Haematologic Technologies Inc) (human) (UniProt P00740)
Test: cell-based or functional assay

human plasma-derived FIXa (Haematologic Technologies Inc) (human), sequence (P00740 47-191, chain 1 of 2): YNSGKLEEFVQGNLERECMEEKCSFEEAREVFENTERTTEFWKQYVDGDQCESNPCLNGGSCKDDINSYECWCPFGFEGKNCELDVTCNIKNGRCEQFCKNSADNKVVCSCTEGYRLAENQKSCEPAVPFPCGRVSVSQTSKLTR
human plasma-derived FIXa (Haematologic Technologies Inc) (human), sequence (P00740 227-461, chain 2 of 2): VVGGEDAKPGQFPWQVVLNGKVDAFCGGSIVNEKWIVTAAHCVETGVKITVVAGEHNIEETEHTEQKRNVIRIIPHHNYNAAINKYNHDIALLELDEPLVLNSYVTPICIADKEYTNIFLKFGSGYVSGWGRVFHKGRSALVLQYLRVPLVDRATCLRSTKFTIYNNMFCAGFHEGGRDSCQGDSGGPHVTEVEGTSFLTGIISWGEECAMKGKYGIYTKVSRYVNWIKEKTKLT

Binder | FXa generation rate at 3.2 nM mAb [pM/min] | FXa generation rate at 6.3 nM mAb [pM/min] | FXa generation rate at 12.5 nM mAb [pM/min] | FXa generation rate at 25 nM mAb [pM/min] | FXa generation rate at 50 nM mAb [pM/min] | FXa generation rate at 100 nM mAb [pM/min] | FXa generation rate at 200 nM mAb [pM/min] | Peak stimulatory activity relative to 224F3 (fold relative to 224F3) | Stimulation index at 3260 nM OA antibody [fold]
B1 | 20 | 17.4 | 14.7 | 9 | 9 | 7.2 | 5.5 | 1 | –
B2 | – | – | – | – | – | – | – | – | < 10
